# Data published in PMC8964413 (Nature chemical biology, 2022).
# Legend:
# [1] = molecular target: unanchored wild-type K63-linked di-Ub (UniProt P0CG48); experiment: cell-based or functional assay
# [2] = molecular target: donor ubiquitin (Ub^D), from His-TEV-Ub^WT (UniProt P0CG48 1-76, in the crystal: G76 isopeptide-linked to K92 of UBE2K); experiment: crystal structure
"k cat/K m of tri-Ub formation, K63-Ub2 as acceptor [1] [M⁻¹ s⁻¹]",binding result [2],Binder
418,,UBE2K^WT (enzyme) MANIAVQRIKREFKEVLKSEETSKNQIKVDLVDENFTELRGEIAGPPDTPYEGGRYQLEIKIPETYPFNPPKVRFITKIWHPNISSVTGAICLDILKDQWAAAMTLRTVLLSLQALLAAAEPDDPQDAVVANQYKQNPEMFKQTARLWAHVYAGAPVSSPEYTKKIENLCAMGFDRNAVIVALSSKSWDVETATELLLSN
,binds,"UBE2K^C92K,K97R,D124C,C170S (enzyme) MANIAVQRIKREFKEVLKSEETSKNQIKVDLVDENFTELRGEIAGPPDTPYEGGRYQLEIKIPETYPFNPPKVRFITKIWHPNISSVTGAIKLDILRDQWAAAMTLRTVLLSLQALLAAAEPDCPQDAVVANQYKQNPEMFKQTARLWAHVYAGAPVSSPEYTKKIENLSAMGFDRNAVIVALSSKSWDVETATELLLSN"
